The supplement of paper PMC10724198
± gives the standard deviation of the averaged measurements.

How the values were obtained:
Saccharomyces cerevisiae [1] = assay: protein stability index of tFT-peptide fusion (C-terminal peptide) (PSI (0-1 scale)); higher = more stable (slower turnover)
Experimental: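 MPS profiling in S. cerevisiae of the tFT-X12 degron library: putative degron peptides plus stable controls, 12 aa, fused to the C-terminus of a sfGFP-mCherry timer. Cells are FACS-sorted into 8 mCherry/sfGFP bins and deep-sequenced. PSI runs from 0 (unstable) to 1 (stable). Backgrounds are wild type, das1Δ and doa10Δ at 30 °C, and wild type, das1Δ, cdc34-1 and cdc53-1 at 37 °C; 2-3 technical replicates each.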

Saccharomyces cerevisiae [2] = assay: as above; conditions: genetic background: wild type; temperature: 30 C
[3] = genetic background: cdc34-1, temperature: 37 C
[4] = genetic background: cdc53-1, temperature: 37 C
[5] = genetic background: das1 deletion, temperature: 30 C
[6] = genetic background: das1 deletion, temperature: 37 C
[7] = genetic background: doa10 deletion, temperature: 30 C
[8] = genetic background: wild type, temperature: 30 C
[9] = genetic background: wild type, temperature: 37 C
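Note: PSI is a weighted mean of sequencing reads over stability bins, variants kept only with over 10 reads, mCherry proximal and sfGFP distal, peptide attached via GGGS linker.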

Sequence | protein stability index (Saccharomyces cerevisiae [1]; [3]) | protein stability index (Saccharomyces cerevisiae [1]; [4]) | protein stability index (Saccharomyces cerevisiae [1]; [5]) | protein stability index (Saccharomyces cerevisiae [1]; [6]) | protein stability index (Saccharomyces cerevisiae [1]; [7]) | protein stability index (Saccharomyces cerevisiae [1]; [8]) | protein stability index (Saccharomyces cerevisiae [1]; [9]) | protein stability index (Saccharomyces cerevisiae [2])
GTMGWYSISRRL | 0.692 ± 0.052 | 0.754 ± 0.025 | 0.681 ± 0.013 | 0.746 ± 0.012 | 0.6585 ± 0.004 | 0.646 ± 0.022 | 0.729 ± 0.0091 | 0.519 ± 0.078
LSCFCLFCLSFC | 0.634 ± 0.053 | 0.678 ± 0.026 | 0.518 ± 0.036 | 0.663 ± 0.027 | 0.517 ± 0.039 | 0.496 ± 0.015 | 0.669 ± 0.0017 | 0.0626 ± 0.033
SPVPITVAVGCR | 0.473 ± 0.0085 | 0.491 ± 0.012 | 0.352 ± 0.034 | 0.5444 ± 0.0028 | 0.329 ± 0.008 | 0.357 ± 0.021 | 0.499 ± 0.018 | 0.407 ± 0.029
GILVVAASICYV | 0.451 ± 0.021 | 0.48 ± 0.02 | 0.355 ± 0.031 | 0.52243 ± 0.00038 | 0.342 ± 0.0088 | 0.359 ± 0.017 | 0.488 ± 0.015 | 0.447 ± 0.018
DSTLLYRPPSPA | 0.672 ± 0.032 | 0.713 ± 0.02 | 0.646 ± 0.019 | 0.7252 ± 0.0017 | 0.651 ± 0.021 | 0.637 ± 0.02 | 0.683 ± 0.022 | 0.7089 ± 0.0008
VVCLCEYRLHIF | 0.203 ± 0.029 | 0.274 ± 0.031 | 0.214 ± 0.034 | 0.399 ± 0.011 | 0.0658 ± 0.017 | 0.0733 ± 0.033 | 0.0928 ± 0.0073 | 0.0917 ± 0.047
VFLDCCLRVFVD | 0.252 ± 0.016 | 0.379 ± 0.028 | 0.228 ± 0.032 | 0.424 ± 0.014 | 0.188 ± 0.014 | 0.222 ± 0.023 | 0.389 ± 0.012 | 0.312 ± 0.011
LLLVCYSTFIVA | 0.287 ± 0.057 | 0.359 ± 0.045 | 0.254 ± 0.04 | 0.3813 ± 0.0031 | 0.251 ± 0.011 | 0.28 ± 0.014 | 0.364 ± 0.0041 | 0.313 ± 0.026
FRLFSLWFCWVR | 0.13 ± 0.0073 | 0.0999 ± 0.022 | 0.227 ± 0.025 | 0.297 ± 0.014 | 0.365 ± 0.013 | 0.212 ± 0.034 | 0.26 ± 0.025 | 0.348 ± 0.015
FAFPTPPPLLFD | 0.68 ± 0.047 | 0.7511 ± 0.00095 | 0.693 ± 0.035 | 0.735 ± 0.0083 | 0.667 ± 0.0073 | 0.676 ± 0.0095 | 0.736 ± 0.013 | 0.751 ± 0.027
DVVVIFGILCYC | 0.0711 ± 0.0034 | 0.16 ± 0.0049 | 0.156 ± 0.045 | 0.3173 ± 0.0014 | 0.125 ± 0.014 | 0.15 ± 0.032 | 0.263 ± 0.0032 | 0.267 ± 0.013
LRNVPCLVFFWV | 0.5656 ± 0.0038 | 0.61 ± 0.025 | 0.439 ± 0.024 | 0.632 ± 0.011 | 0.334 ± 0.017 | 0.384 ± 0.03 | 0.631 ± 0.049 | 0.462 ± 0.048
VYVRYYVRVVVI | 0.0256 ± 0.0012 | 0.0406 ± 0.00046 | 0.0781 ± 0.04 | 0.167 ± 0.024 | 0.0369 ± 0.0049 | 0.046 ± 0.016 | 0.0659 ± 0.0096 | 0.115 ± 0.012
LCIYNFGWWFCV | 0.494 ± 0.011 | 0.637 ± 0.044 | 0.561 ± 0.036 | 0.6389 ± 0.0054 | 0.121 ± 0.015 | 0.134 ± 0.0087 | 0.128 ± 0.014 | 0.183 ± 0.056
IGMVSELLLFYP | 0.721 ± 0.047 | 0.7374 ± 0.0073 | 0.671 ± 0.022 | 0.7676 ± 0.0068 | 0.63 ± 0.0085 | 0.667 ± 0.045 | 0.73 ± 0.008 | 0.72 ± 0.017
FFSLRRAVTVSA | 0.208 ± 0.013 | 0.217 ± 0.0034 | 0.212 ± 0.028 | 0.372 ± 0.0052 | 0.168 ± 0.0042 | 0.2 ± 0.029 | 0.3273 ± 0.002 | 0.349 ± 0.069
GYLFICSWCEGF | 0.46 ± 0.059 | 0.503 ± 0.01 | 0.363 ± 0.023 | 0.503 ± 0.029 | 0.352 ± 0.028 | 0.346 ± 0.018 | 0.4849 ± 0.0034 | 0.427 ± 0.048
ICFFQGVVVLFR | 0.353 ± 0.033 | 0.403 ± 0.005 | 0.312 ± 0.026 | 0.48 ± 0.014 | 0.3653 ± 0.0027 | 0.303 ± 0.044 | 0.4521 ± 0.0013 | 0.407 ± 0.0077
FPYARHLSVLLL | 0.598 ± 0.04 | 0.662 ± 0.02 | 0.564 ± 0.018 | 0.681 ± 0.022 | 0.371 ± 0.0079 | 0.392 ± 0.025 | 0.54 ± 0.007 | 0.472 ± 0.029
AHPTLILTNKIA | 0.578 ± 0.13 | 0.705 ± 0.063 | 0.643 ± 0.025 | 0.712 ± 0.044 | 0.0637 ± 0.025 | 0.104 ± 0.044 | 0.121 ± 0.023 | 0.237 ± 0.0044

Sequence | protein stability index (Saccharomyces cerevisiae [1]; [3]) | protein stability index (Saccharomyces cerevisiae [1]; [4]) | protein stability index (Saccharomyces cerevisiae [1]; [5]) | protein stability index (Saccharomyces cerevisiae [1]; [6]) | protein stability index (Saccharomyces cerevisiae [1]; [7]) | protein stability index (Saccharomyces cerevisiae [1]; [8]) | protein stability index (Saccharomyces cerevisiae [1]; [9]) | protein stability index (Saccharomyces cerevisiae [2])
LWFFVGFAVYGG | 0.302 ± 0.0084 | 0.438 ± 0.018 | 0.346 ± 0.036 | 0.513 ± 0.019 | 0.306 ± 0.012 | 0.371 ± 0.0059 | 0.497 ± 0.058 | 0.455 ± 0.0066
LCGIFTFRLSLL | 0.693 ± 0.06 | 0.7815 ± 0.0027 | 0.668 ± 0.028 | 0.706 ± 0.014 | 0.245 ± 0.026 | 0.273 ± 0.024 | 0.437 ± 0.005 | 0.388 ± 0.051
LRSVLGWGLFLA | 0.45 ± 0.033 | 0.494 ± 0.014 | 0.493 ± 0.027 | 0.621 ± 0.0097 | 0.236 ± 0.0088 | 0.208 ± 0.021 | 0.422 ± 0.0078 | 0.325 ± 0.018
WVFVVWFVFVVG | 0.242 ± 0.022 | 0.3112 ± 0.00051 | 0.241 ± 0.022 | 0.374 ± 0.021 | 0.202 ± 0.013 | 0.215 ± 0.02 | 0.356 ± 0.03 | 0.322 ± 0.016
LFLSFLLFVLAF | 0.434 ± 0.023 | 0.444 ± 0.015 | 0.319 ± 0.029 | 0.471 ± 0.036 | 0.302 ± 0.0039 | 0.312 ± 0.045 | 0.425 ± 0.0086 | 0.388 ± 0.042
IRSLRPFLLPLF | 0.645 ± 0.016 | 0.731 ± 0.018 | 0.643 ± 0.022 | 0.7184 ± 0.0066 | 0.283 ± 0.004 | 0.306 ± 0.03 | 0.543 ± 0.0084 | 0.4088 ± 0.004
VGFYGRWVCVAC | 0.366 ± 0.053 | 0.462 ± 0.024 | 0.287 ± 0.015 | 0.435 ± 0.0074 | 0.236 ± 0.011 | 0.265 ± 0.019 | 0.384 ± 0.0068 | 0.29 ± 0.04
LSVSLFPIRYVG | 0.666 ± 0.027 | 0.76446 ± 1.3e-05 | 0.617 ± 0.019 | 0.7638 ± 0.0037 | 0.196 ± 0.0098 | 0.24 ± 0.02 | 0.453 ± 0.016 | 0.396 ± 0.025
VLVCYFCRYISH | 0.479 ± 0.059 | 0.579 ± 0.052 | 0.413 ± 0.046 | 0.573 ± 0.011 | 0.365 ± 0.0057 | 0.398 ± 0.021 | 0.5316 ± 0.0028 | 0.485 ± 0.0091
PYPPTSLPPTWQ | 0.672 ± 0.043 | 0.7459 ± 0.0012 | 0.652 ± 0.0095 | 0.711 ± 0.017 | 0.678 ± 0.023 | 0.671 ± 0.038 | 0.701 ± 0.025 | 0.726 ± 0.026
RFVLVFLVSLII | 0.376 ± 0.039 | 0.501 ± 0.0079 | 0.399 ± 0.029 | 0.541 ± 0.042 | 0.364 ± 0.016 | 0.397 ± 0.016 | 0.48 ± 0.019 | 0.435 ± 0.035
VVACCVVFWVLP | 0.232 ± 0.017 | 0.469 ± 0.042 | 0.27 ± 0.028 | 0.481 ± 0.016 | 0.231 ± 0.011 | 0.292 ± 0.022 | 0.507 ± 0.013 | 0.437 ± 0.086
VLLSSSLVFLIS | 0.597 ± 0.022 | 0.6439 ± 0.0011 | 0.522 ± 0.016 | 0.631 ± 0.018 | 0.385 ± 0.016 | 0.416 ± 0.02 | 0.575 ± 0.0085 | 0.462 ± 0.044
FPCIFFFCLFIL | 0.209 ± 0.039 | 0.197 ± 0.0039 | 0.251 ± 0.027 | 0.337 ± 0.025 | 0.31 ± 0.013 | 0.203 ± 0.021 | 0.276 ± 0.016 | 0.271 ± 0.05
PDCRPPLVRCLL | 0.9585 ± 0.0082 | 0.902 ± 0.071 | 0.827 ± 0.028 | 0.9164 ± 0.0047 | 0.8334 ± 0.0043 | 0.822 ± 0.035 | 0.936 ± 0.019 | 0.796 ± 0.03
GVVCVLGFALFV | 0.403 ± 0.026 | 0.507 ± 0.042 | 0.293 ± 0.046 | 0.495 ± 0.0051 | 0.28 ± 0.014 | 0.3 ± 0.028 | 0.473 ± 0.0053 | 0.413 ± 0.08
VFLACSMTGGDA | 0.256 ± 0.029 | 0.326 ± 0.022 | 0.373 ± 0.067 | 0.27 ± 0.0086 | 0.413 ± 0.021 | 0.36 ± 0.049 | 0.264 ± 0.016 | 0.331 ± 0.022
FFSFTVLVSYGF | 0.18 ± 0.011 | 0.256 ± 0.015 | 0.192 ± 0.025 | 0.34 ± 0.0067 | 0.186 ± 0.0095 | 0.187 ± 0.023 | 0.284 ± 0.0081 | 0.352 ± 0.017
SSFPGPPLPPDP | 0.704 ± 0.024 | 0.74 ± 0.013 | 0.652 ± 0.024 | 0.731 ± 0.022 | 0.682 ± 0.038 | 0.7 ± 0.019 | 0.7108 ± 0.0069 | 0.59 ± 0.17
